Test results published in publication PMC13078783.

Target: GFP-MAP7 (UniProt O88735)
Test: co-IP; HeLa cells transfected with GFP/GFP-MAP7, HA-KLC2 and HA-KIF5C (WT, ElbowLock, DeltaElbow); GFP-TRAP beads; western blot with anti-GFP and anti-HA

GFP-MAP7, sequence (O88735 whole entry): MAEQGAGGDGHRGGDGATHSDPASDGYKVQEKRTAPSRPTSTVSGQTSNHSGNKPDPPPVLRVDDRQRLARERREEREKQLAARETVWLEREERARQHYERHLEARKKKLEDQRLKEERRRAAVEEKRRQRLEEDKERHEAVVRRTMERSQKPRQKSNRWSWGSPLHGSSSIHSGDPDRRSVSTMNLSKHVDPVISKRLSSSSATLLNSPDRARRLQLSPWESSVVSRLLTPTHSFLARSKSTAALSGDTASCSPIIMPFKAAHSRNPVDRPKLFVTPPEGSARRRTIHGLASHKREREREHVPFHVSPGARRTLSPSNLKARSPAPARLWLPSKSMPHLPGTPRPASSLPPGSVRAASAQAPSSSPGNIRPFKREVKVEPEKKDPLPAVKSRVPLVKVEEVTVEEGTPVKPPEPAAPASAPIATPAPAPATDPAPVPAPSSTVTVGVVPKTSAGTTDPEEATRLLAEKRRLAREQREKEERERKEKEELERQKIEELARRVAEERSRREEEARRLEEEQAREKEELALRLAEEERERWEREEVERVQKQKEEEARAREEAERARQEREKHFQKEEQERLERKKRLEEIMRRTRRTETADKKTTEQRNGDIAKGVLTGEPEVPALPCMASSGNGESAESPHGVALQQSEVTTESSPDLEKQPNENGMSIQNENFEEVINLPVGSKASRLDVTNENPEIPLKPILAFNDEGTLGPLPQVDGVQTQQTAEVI

DeltaElbow kinesin-1 complex (HA-KIF5C DeltaElbow / HA-KLC2) (from UniProt P56536 1-955; O88448 1-599)
fold increase of kinesin-1 co-precipitated with GFP-MAP7 against wild-type or ElbowLock: 5 fold
